From the supplement of paper PMC9170038

Test system: K4 kissing-loop RNA reporter
Test: apparent KD of K4 kissing-loop reporter; higher = weaker reporter binding
Conditions: Eterna round: R107
Procedure: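 RNA-MaP round R107: designed RNA switches with theophylline, tryptophan, arginine or FMN aptamers are transcribed on-chip within common flanks. They are titrated with a labelled K4 kissing-loop RNA reporter in RNA-MaP buffer (100 mM Tris pH 7.5, 80 mM KCl, 4 mM MgCl2), without ligand or with the indicated ligand. Median apparent KD per design.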

[1] = input ligand: theophylline 20 uM
[2] = input ligand: tryptophan 2.4 mM
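Further: bound reporter read as fluorescence of individual clusters on recovered sequencing chips by microscopy, with normalized cluster intensities fitted with a binding model.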

Sequence	apparent KD of K4 kissing-loop reporter (input ligand: FMN 200 uM)	apparent KD of K4 kissing-loop reporter (input ligand: arginine 13.2 mM)	apparent KD of K4 kissing-loop reporter (input ligand: none)	apparent KD of K4 kissing-loop reporter [1]	apparent KD of K4 kissing-loop reporter [2]
AAACAACGUGACGAUACCAGCUUACUCGGCAAGCCAGUGAUGUUGGUGAAAAGGAGUCAAAGCCCUUGGCAGCGUCGAAGGUCUG [Georbeer]	332 nM	326 nM	427 nM	150 nM	325 nM
AAACAUUGGUCUGAUACCAGCUUGAUCGGUAAACGAUCUACUGGAGUGAUGUUCCUAAAUAGCCCUUGGCAGCAGACCGAUGAAA [MAT - Same State Theophlline B - Mod of Eli - D6]	187 nM	172 nM	177 nM	132 nM	181 nM
AAACAUUGGUCUGAUACCAGUUAGACCGAUAAGGUCAAAACUGGAGUGAUGUUCCCAAAUAACCCUUGGCAGCAGACCGAUGAAA [MAT - Same State Theophlline B - Mod of Eli - D10]	147 nM	66 nM	212 nM	185 nM	231 nM
AAACGCUGGUGAAUAACACUAGCGAAUUCGCGAGGACCGGUACGGCCGCCACUCGCUAACUGCGAGUGAUGUUCGAUAAUAAAAU [Mat - Mod of OpenEnded 3 - D2]	141 nM	107 nM	154 nM	189 nM	142 nM
AAACGUUGGUCGGAUACCAGUUAGACCGAUAAGGUCAAAACUGGAGUGAUGUUCCCAAAUAACCCUUGGCAGCCGACCGACGAAA [MAT - Same State Theophlline B - Mod of Eli - D12]	318 nM	126 nM	214 nM	219 nM	213 nM
AAACGUUGGUCUGAUACCAGCUUGAUCGGUAAACGAUCUACUGGAGUGAUGUUCCUAAAUAGCCCUUGGCAGCAGACCGACGAAA [MAT - Same State Theophlline B - Mod of Eli - D7]	195 nM	163 nM	173 nM	118 nM	170 nM
AAACUUGCAGUGAUGUUGCAAGUAGGUGAUACCAGCAUCGAAAGAUGCCCUUGGCAGCACCAAAACAUCACUUAGGUGCUGUCUA [(H1)-(H2)-(T1)-(T2)-(H)'-(T)'_Design6]	757 nM	494 nM	622 nM	603 nM	614 nM
AAAUAGAUCAGUCAACCAGUGAUGUUGGAAGGAGCGUGCGAAAGCACAGGUAGGUCGCCAGAAUAAAAGUGGCUGAUCAAAAUAA	357 nM	384 nM	374 nM	508 nM	214 nM
AAAUAGAUCAGUCACCCAGUGAUGUUGGAAGGAGCGUGCGAAAGCACAGGUAGGUCGCCAAAAUAAAAUUGGCUGAUCAAAAUAA	304 nM	310 nM	361 nM	485 nM	195 nM
AAAUCGUUCAGAAGGAGCGUGGUAUAAUCAUUAAUAUUUAUUACGAGUGAUGUUCGUAAUUCACAGGUAGGUCGCUGAUCGAUAA [JR_SSArginiB_Sub006]	88.6 nM	94.6 nM	86 nM	99.8 nM	82.7 nM
AAAUGCAGCAAACGAGUGAUGUUCGACGAUACCAGCCUCGAUAGAGGCCCUUGGCAGCGUACAUCAAAGCCAAGGGCUGCUAAAA [#SwitchBubble 3]	483 nM	463 nM	552 nM	499 nM	454 nM
AAAUUCUUUUUUUUAUUUAACUUUUCAGAAGGAGCGUGGUAGUACACAGGUAGGUCGCUGAAUUUUGGACUAGUGAUGUUAGUUA [JR_SSArginiA_Sub007]	156 nM	154 nM	158 nM	228 nM	153 nM
AAAUUCUUUUUUUUAUUUAACUUUUCAGAAGGAGCGUGGUAGUUCACAGGUAGGUCGCUGAAUUUUGGACUAGUGAUGUUAGUUA [JR_SSArginiA_Sub006]	148 nM	214 nM	234 nM	216 nM	158 nM
AAAUUUAAUAUAUUUAAUUAAUUAUGUGAUACCAGACAUUUAUAAGUCCCUUGGCAGCACUUUGCAGUGAUGUUGCAUAUAAUAA [JR_SSTheophyA_Sub013]	89 nM	185 nM	121 nM	157 nM	99.2 nM
AAAUUUUCAAGUGAUACCAGACAUCUCUAUUACAUUAAUAUAGCUAAGUGAUGUUUAGCAGUCCCUUGGCAGCACAAUUUAAUUA [JR_SSTheophyB_Sub013]	255 nM	202 nM	297 nM	337 nM	215 nM
AACAGCAAUGCGGCCGCCACUUCGAGGUCAGUGAUGUUGACGGAAUUAAAUAAAGAUCCCAAGAGGAGGACCGGGCAGUGCUGUU [whbob_SS_Tryp_B_t25]	468 nM	465 nM	499 nM	410 nM	289 nM
AACAGCAAUGCGGCCGCCACUUCGAGGUCAGUGAUGUUGACGGGAUUAAAUAAAGAUCCCAAGAGGAGGACCGGGCAGUGCUGUU [whbob_SS_Tryp_B_t26]	225 nM	195 nM	215 nM	176 nM	192 nM
AACCACUCGUUACAUCACUAUCGAGUGGAACGAGGACCGGUACGGCCGCCACUCGAUUAGAUGCAGUGAUGUUGCAUCUUAGAAU [KL-SSTryp-A (BrourdMod)3 #dotplot2 strengthened]	195 nM	163 nM	165 nM	176 nM	133 nM
AACCACUCGUUACAUCACUAUCGAGUGGAACGAGGACCGGUACGGCCGCCACUCGGUAACAAGCAGUGAUGUUGCUUGUAAGAAU [KL-SSTryp-A (BrourdMod)2 #dotplot2 strengthened]	298 nM	252 nM	307 nM	312 nM	164 nM
AACCGAGGUAAUCCACAAUGAUUAGAAGAUACCAGAUAUAUAAAUAUCCCUUGGCAGCUUUGAAUGAGUGAUGUUCAUUUGUCAU [KL-SSTheo-A11]	126 nM	207 nM	159 nM	214 nM	104 nM
AACCGCCAGUCGGCCGCCACUCACAGCAGUGAUGUUGCUGAAAAUCUAAAAGAGUGAUGUUCUUAGAGGACCGGGACUCCAGGCG [Same State Tryptophan B GF 5]	260 nM	76.9 nM	218 nM	56.7 nM	145 nM

Sequence	apparent KD of K4 kissing-loop reporter (input ligand: FMN 200 uM)	apparent KD of K4 kissing-loop reporter (input ligand: arginine 13.2 mM)	apparent KD of K4 kissing-loop reporter (input ligand: none)	apparent KD of K4 kissing-loop reporter [1]	apparent KD of K4 kissing-loop reporter [2]
AACGCUGGUGAAUAACACUAGCGAAAAUUCCGAGGACCGGUACGGCCGCCACUCGGCUAACUGCGAGUGAUGUUCGAUAAUAAAA [Mat - Mod of OpenEnded 3 - D9]	80.3 nM	183 nM	109 nM	189 nM	60.2 nM
AACGGCCAGUCGGCCGCCACUCGAUGCAGUGAUGUUGCUAACUUUCUAAAAGAGUGAUGUUCAUGGAGGACCGGGACUAAUGUAA [#29 K4 Tryptophan B Exclusion]	349 nM	298 nM	346 nM	382 nM	228 nM
AACUCUCAGACACCUGAGUGAUGUUCAGGCCGAGGACCGGUACGGCCGCCACUCGGGUCUGAGAGAGGUUAUCAAAGAUAGCCAA [Omei KL Tryp A SS A v3]	675 nM	244 nM	336 nM	304 nM	338 nM
AACUCUCAGACAUUUGAGUGAUGUUCAGGCCGAGGACCGGUACGGCCGCCACUCGGGUCUGAGAGAGGUUAUCAAAGAUAGCCAA [Omei KL Tryp A SS A v6]	467 nM	179 nM	234 nM	214 nM	385 nM
AACUGUCAAGGACAACAUUACUGAGGUGAUACCAGCAUCGAAAGAUGCCCUUGGCAGCACUAACUUGCAGUGAUGUUGCAAGUAA [BrourdMod 2 - Jieux - Exclusion - Theophylline A]	211 nM	173 nM	193 nM	197 nM	206 nM
AACUGUCAAGGCCGACAUUACUGAGGUGAUACCAGCAUCGAAAGAUGCCCUUGGCAGCACCAACUUGCAGUGAUGUUGCAAGUAA [BrourdMod 14 - Jieux - Exclusion - Theophylline A]	191 nM	158 nM	170 nM	198 nM	184 nM
AAGAAGGUCAAAGACCUUCGUGCACCUGAUACCAGUCGCGAAAGCGACCCUUGGCAGCAGGGCAGUGAUGUUGCCAAGUGCACAA [Omei KL Theo A SS A v1]	782 nM	650 nM	898 nM	400 nM	823 nM
AAGAAGGUCAAAGACCUUCGUGCUCGUGAUACCAGUCGCGAAAGCGGCCCUUGGCAGCACGGCAGUGAUGUUGCCAAGAGCACAA [#13 K4 Theophylline A Same State]	318 nM	86.6 nM	190 nM	413 nM	211 nM
AAGAGAUCGAGAAGGAGCGAGAAAGCUAGUACAUAUGUACUAGCAAAGCAGUGAUGUUGCACUCAGGUAGGUCGCUCGAUCUCAA [AK1 SS Arginine B]	395 nM	299 nM	432 nM	335 nM	314 nM
AAGAGCUAGGCGGCCGCCACUAGUUGUGAACACAUACAAGCCAGUGAUGUUGGUAUGGUGGACGGUAGGACCGGGCCUAGCUGAA [Exclusion - Tryptophan B (Freestyle 16)]	180 nM	229 nM	224 nM	259 nM	283 nM
AAGAGGUAGGCGGCCGCCACUAGUUGUGAACACAUACGAGCCAGUGAUGUUGGUAUUGUGGGCGGUAGGACCGGGCCUACCUGAA [Exclusion - Tryptophan B (Freestyle 19)]	319 nM	336 nM	358 nM	322 nM	281 nM
AAGCAGUCACGCGAAGCCAUCGAAGAUGGCCGAGGACCGGUACGGCCGCCACUCGGAGUGAUGUUCCGAAGACUGCAAAAUAAAA	370 nM	386 nM	417 nM	468 nM	252 nM
AAGCAGUCACUCAAAGCCAUCGAAGAUGGACGAGGACCGGUACGGCCGCCACUCGGAGUGAUGUUCCGAAGACUGCAAAAUAAAA	408 nM	295 nM	304 nM	511 nM	230 nM
AAGCAGUCACUCAAAGCCAUCGAAGAUGGUCGAGGACCGGUACGGCCGCCACUCGGAGUGAUGUUCCGAAGACUGCAAAAUAAAA	407 nM	394 nM	424 nM	411 nM	346 nM
AAGCAGUCACUCUAAGCCAUCGAAGAUGGACGAGGACCGGUACGGCCGCCACUCGGAGUGAUGUUCCGAAGACUGCAAAAUAAAA	379 nM	402 nM	466 nM	396 nM	399 nM
AAGCAGUCUCUUGUAGUCAUCGAAGAUGAACGAGGACCGGUACGGCCGCCACUCGGAGUGAUGUUCCGAAGACUGCAAAAUAAAA [MatMod 17 - Jieux - Exclusion - Tryptophan A]	581 nM	422 nM	1010 nM	765 nM	180 nM
AAGCAUUGGUCUGAUACCAGUUGAUGACGAAUACGUCAACUGGAGUGAUGUUCCUAAAACAACCCUUGGCAGCAGACCGAUGCAA [MAT - Same State Theophlline B - Mod of Eli - D2]	761 nM	704 nM	835 nM	750 nM	838 nM
AAGCCAGAGAUUGCUGCGGGUUCCAGAGAUACCAGCCGUAUUGAAGGCCCUUGGCAGCUCGAGUGAUGUUCGAGCCGUCUCCGGC [Onte]	111 nM	110 nM	114 nM	116 nM	113 nM
AAGGCAGUUCGAGGAUAUCACAUACACUCCUUGAAUCAAGGAGUGAUGUUCCUUGAAGUGUAUGCAUGAGAAGGCGAAUUGCCUU [FMN B SS t5]	113 nM	103 nM	109 nM	103 nM	101 nM
AAGGGCGAGGUAACGUGGAUAUCUCGUCGCAAGGAUAUCUGGAAACAGAGAAGGUGCUACAUUACCGGCAGUGAUGUUGCUGACC	887 nM	312 nM	573 nM	278 nM	261 nM
AAGGUAUCACCAACUUGCAACAAAGGUGAUACCAGCAUCGAAAGAUGCCCUUGGCAGCACCAACUUGCAGUGAUGUUGCAAGUAA [(T)'-(H)'-(T1)-(T2)-(H1)-(H2)_Design10]	170 nM	161 nM	159 nM	186 nM	170 nM
